The source of these data is the supplement of paper PMC12764529.

Data set [1] in a line: folding stability dG unfold (combined trypsin and chymotrypsin); higher = more stable. A digest of the protocol: (§1)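 Designed mini-proteins (under 80 residues, no cysteine) in a PA-tagged cDNA display construct were digested with trypsin and chymotrypsin. Each protease was used at 11 concentrations (threefold dilutions) plus a no-protease condition, followed by sequencing. K50 was inferred by Bayesian fitting of sequencing counts, and unfolding free energy was derived against a sequence-predicted unfolded-state K50 and a shared folded-state K50, per protease or combined. Only designs with AlphaFold2 dimer inter-PAE above 15 were kept.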

Data set [2] in a line: folding stability dG unfold from trypsin proteolysis; higher = more stable. A digest of the protocol:
as §1

Data set [3] can be described thus: folding stability dG unfold from chymotrypsin proteolysis; higher = more stable. In short, it runs like this: as §1

± gives the half width of the 95% confidence interval.

For the sequence “SAGGSAGGSKNVKTVTIPFNNMSPSKFIEQIKNHPVDAIEIEMPDPWYRRFLNWLKDEGIKVISAGGSAGGS [r12_610_TrROS]”, the entries for the “folding stability dG unfold” value in data set [1], in data set [2] and in data set [3] were 1.49 ± 0.12 kcal/mol, 1.27 ± 0.053 kcal/mol and 1.49 ± 0.18 kcal/mol, respectively.
For “SAGGSAGGSKPDTIKITFPDGFEIEINGPGMIMIRFPEQGYIFRIPIDPDKNEIKIEIVEPLPSAGGSAGGS [r12_539_TrROS]” the same measures were 3.05 ± 0.13 kcal/mol, 2.43 ± 0.11 kcal/mol and 3.39 ± 0.045 kcal/mol.
For the sequence “SAGGSAGGSKPELVIPITFPVLVKNPLDGKIYPVKVEIHIFYYPDKPIIEITLINPDGKPFPFSAGGSAGGS [r12_283_TrMRF]”, the “folding stability dG unfold” value in data set [1] was determined as 1.93 ± 0.066 kcal/mol; in data set [2] it was 2.13 ± 0.064 kcal/mol; in data set [3], 1.67 ± 0.038 kcal/mol.
For “SAGGSAGGSKPGEVYEVKVKIKDKETGKYYEVKVKVYRLEDGTLLIEVDGKIFEVPVKDIEIESAGGSAGGS [r12_790_TrROS_Hall]” the same measures were 3.99 ± 0.11 kcal/mol, 3.25 ± 0.2 kcal/mol and 4.2 ± 0.082 kcal/mol.
For “SAGGSAGGSKPIPYRVKIPSPNGKTHKFDVQIQVRPDGMIDIHVPSGKTIHIPANYPVEIEPWSAGGSAGGS [r20_227_TrROS]”, in that order: 0.056 ± 0.21 kcal/mol, 0.132 ± 0.13 kcal/mol and -0.208 ± 0.52 kcal/mol.
On to “SAGGSAGGSKPTLTLEIVLPPEMTLEQLEELARALAEELGLDEVEVRVERRPDGYLRITITVKSAGGSAGGS [r20_208_TrROS_Hall]”, for which the “folding stability dG unfold” value in data set [1] is 3.59 ± 0.12 kcal/mol; in data set [2], 3.63 ± 0.18 kcal/mol; in data set [3], 3.45 ± 0.091 kcal/mol.
For “SAGGSAGGSKTITLSAEELEKMSPEERKKLAELAEKLGAKIEVKDGKVTITIEGLTPEELKALSAGGSAGGS [r12_945_TrROS_Hall]” the same measures were 3.06 ± 0.25 kcal/mol, 3.84 ± 0.25 kcal/mol and 2.33 ± 0.12 kcal/mol.
As for “SAGGSAGGSKTITVRVKITLPNGETIEVEAEITVRPDGSITITLPDGSTITLPPGAKVEIEPVSAGGSAGGS [r20_227_TrROS_Hall]”, the “folding stability dG unfold” value in data set [1] came out at 2.85 ± 0.26 kcal/mol; in data set [2] it was 2.99 ± 0.12 kcal/mol; in data set [3], 2.51 ± 0.17 kcal/mol.
In the case of “SAGGSAGGSKTIVITIEPNVKTPEQLLELLKKIRELSKPGEKIVIIASPEVLEALKKAGLIEESAGGSAGGS [r12_992_TrROS_Hall]”, the entries for the “folding stability dG unfold” value in data set [1], in data set [2] and in data set [3] were 3.49 ± 0.097 kcal/mol, 3.2 ± 0.16 kcal/mol and 3.7 ± 0.086 kcal/mol, respectively.
For “SAGGSAGGSKTIVLPKNMSIEQAREEILAKARELLPPGEKLKVTIEVVETPEGTYLKITIEKESAGGSAGGS [r12_1051_TrROS_Hall]” the same measures were 3.22 ± 0.058 kcal/mol, 2.49 ± 0.06 kcal/mol and 3.51 ± 0.086 kcal/mol.
“SAGGSAGGSKTKTIEIEVDGKKVRITVNEDGSVTIEVYYPGKPVKTIEIPGMSIEEILKALLESAGGSAGGS [r20_8_TrROS_Hall]”: the “folding stability dG unfold” value in data set [1] came out at 2.73 ± 0.098 kcal/mol; in data set [2], 3.08 ± 0.071 kcal/mol; in data set [3], 2.27 ± 0.071 kcal/mol.
For “SAGGSAGGSKTPVFYIPPSLKDPEKAIELLEEIRKKIPPGTKIAVIAPGGGIPELKKAGLITASAGGSAGGS [r12_992_TrMRF]” the same measures were 0.472 ± 0.11 kcal/mol, 0.344 ± 0.048 kcal/mol and 0.518 ± 0.03 kcal/mol.
For “SAGGSAGGSKTVEITITRKDGKKLKIEFYPDGYIKIYDSNGKLVKTIKVDPNASIEEILKALKSAGGSAGGS [r12_990_TrROS_Hall]” the same measures were 3.39 ± 0.083 kcal/mol, 3.31 ± 0.12 kcal/mol and 3.38 ± 0.038 kcal/mol.
Regarding “SAGGSAGGSKTVVITLPENEELGLEKLEELIEKVGPDAKIIISRWDPETGKVDYLVIETGEGKSAGGSAGGS [r12_913_TrMRF]”, the “folding stability dG unfold” value in data set [1] is 1.69 ± 0.14 kcal/mol; in data set [2], 1.02 ± 0.041 kcal/mol; in data set [3], 1.92 ± 0.21 kcal/mol.
For “SAGGSAGGSKVEVKEFEFKANGSKALIEKLEDGSVKIIVLGEEPKEYEISPEEPIVILPGFEVSAGGSAGGS [r12_1003_TrMRF]” the same measures were -0.172 ± 0.09 kcal/mol, -0.341 ± 0.068 kcal/mol and -0.172 ± 0.1 kcal/mol.
For “SAGGSAGGSKVFTVEELENMTPEEIRALIKKSKKPVIIVAKSEEEKKRAAELLKELGVEVKVLSAGGSAGGS [r12_97_TrROS_Hall]”, in that order: 3.7 ± 0.11 kcal/mol, 3.73 ± 0.12 kcal/mol and 3.6 ± 0.057 kcal/mol.
“SAGGSAGGSKVKLTFTIPPGTTPEEAIAKAEELAKKLNIPIVKIDSIEYDPETGTVRIELELDSAGGSAGGS [r12_131_TrMRF]”: the “folding stability dG unfold” value in data set [1] was found to be 4.31 ± 0.068 kcal/mol; in data set [2], 4.05 ± 0.15 kcal/mol; in data set [3] it was 4.31 ± 0.049 kcal/mol.
On to “SAGGSAGGSLEVKVLGIVGDKPVEVTLPAGLGELTLEEIRAAFPPGEWRLVLRDENGNETPLTSAGGSAGGS [r12_540_TrMRF]”, for which the “folding stability dG unfold” value in data set [1] is 0.446 ± 0.16 kcal/mol; in data set [2], 0.663 ± 0.089 kcal/mol; in data set [3] it was -0.00936 ± 0.18 kcal/mol.
Consider “SAGGSAGGSLKPFPIEDITVQPRRNPDGNRYYQVSIRIKGPGRPINIPFPMDNPKKFLEDIIKSAGGSAGGS [r20_238_TrROS]”, for which the “folding stability dG unfold” value in data set [1] amounted to 0.285 ± 0.17 kcal/mol; in data set [2] it was 0.519 ± 0.081 kcal/mol; in data set [3], 0.143 ± 0.12 kcal/mol.
Regarding “SAGGSAGGSLMIPIPPGKPINIKFEIKNDDGHPMRITETYPVKNGYYVIRVENPNGNEQIIPFSAGGSAGGS [r12_31_TrROS]”, the “folding stability dG unfold” value in data set [1] is -0.185 ± 0.14 kcal/mol; in data set [2], -0.247 ± 0.15 kcal/mol; in data set [3] it was -0.271 ± 0.2 kcal/mol.
On to “SAGGSAGGSMADITITVTDPATGATRTFPHSVSLEEILAEHPGPVTVTIETPTSTTTLQVPRESAGGSAGGS [r12_1056_JUSTAS]”, for which the “folding stability dG unfold” value in data set [1] was found to be 0.542 ± 0.056 kcal/mol; in data set [2], 0.884 ± 0.03 kcal/mol; in data set [3], 0.0731 ± 0.084 kcal/mol.
For “SAGGSAGGSMDLKDIKILEAYDPGGPVVVTFLNEGKPYTVTIPPENAQILLDLLKEGNIEIKPSAGGSAGGS [r12_604_TrMRF]”, in that order: 1.25 ± 0.054 kcal/mol, 0.773 ± 0.032 kcal/mol and 1.54 ± 0.047 kcal/mol.
For “SAGGSAGGSMDLKNAKIISIEETENEIKITIEVDGKLYTITISKEEAEKLKKLLEDLNIEIIPSAGGSAGGS [r12_604_TrROS_Hall]” the same measures were 4.27 ± 0.14 kcal/mol, 4.14 ± 0.23 kcal/mol and 4.3 ± 0.079 kcal/mol.
“SAGGSAGGSMEEIIEEIKKKVPKDKYAEIEIEVPFPDGSKKKFKIKFYPETNEFEVEELEEIPSAGGSAGGS [r12_305_TrMRF]”: the “folding stability dG unfold” value in data set [1] turned out to be 3.88 ± 0.24 kcal/mol; in data set [2], 3.12 ± 0.26 kcal/mol; in data set [3], 4.12 ± 0.23 kcal/mol.
For “SAGGSAGGSMFEEEEIEIERPDGTTIKVKVEILPDGTRVLTITDPKEGKTTTVTLSPNEEILLSAGGSAGGS [r20_45_JUSTAS]” the same measures were 1.6 ± 0.12 kcal/mol, 2.15 ± 0.12 kcal/mol and 0.464 ± 0.049 kcal/mol.
For “SAGGSAGGSMHEDEQLPYEAAEKYTILKLKEENEKLNLPPIPIKKIEIEKDPETGLVRVKVYGSAGGSAGGS [r12_583_TrMRF]” the same measures were -0.552 ± 0.39 kcal/mol, -0.788 ± 0.42 kcal/mol and -0.579 ± 0.6 kcal/mol.
For “SAGGSAGGSMIEYPELTLEELKAKFEAEGYTVEEEPPTNVVTLTPPDGTPITVTVTPVPESLLSAGGSAGGS [r12_211_JUSTAS]”, in that order: 0.803 ± 0.057 kcal/mol, 1.21 ± 0.043 kcal/mol and 0.352 ± 0.013 kcal/mol.
For the sequence “SAGGSAGGSMIFFPNITKEEFEEIFRKKGYKVKRYPSTNVIEVTGKDGKPIKAVVIPVSPEEFSAGGSAGGS [r12_211_TrMRF]”, the “folding stability dG unfold” value came out at 0.668 ± 0.088 kcal/mol in data set [1], 0.677 ± 0.058 kcal/mol in data set [2] and 0.618 ± 0.13 kcal/mol in data set [3].
For “SAGGSAGGSMIKIKVKSKEDVEALIKELEKAGFKVKKVEEVDGKVYFTLENGEKIEIEVVPPESAGGSAGGS [r20_93_TrROS_Hall]”, in that order: 5.05 ± 0.34 kcal/mol, 4.24 ± 0.48 kcal/mol and 4.94 ± 0.12 kcal/mol.
Consider “SAGGSAGGSMIKVKITYPNGEEKTIEIEAETEEEAEEAAKKLAEELGKDVKVEVEKVSPEELKSAGGSAGGS [r12_385_TrROS_Hall]”, for which the “folding stability dG unfold” value in data set [1] was 1.45 ± 0.073 kcal/mol; in data set [2], 1.64 ± 0.075 kcal/mol; in data set [3], 1.22 ± 0.034 kcal/mol.
For “SAGGSAGGSMKITKIEVEENEDGTLTVRLELEFVDPETKETYRVELEITVSKEELEKLLEALKSAGGSAGGS [r12_691_TrROS_Hall]”, in that order: 3.9 ± 0.23 kcal/mol, 3.03 ± 0.12 kcal/mol and 4.09 ± 0.21 kcal/mol.
For “SAGGSAGGSMKITKTEEGVYLVEFTLPDGTPLVIPFPTDDPFLTEEQAVEIAKPIAAAFAAAGSAGGSAGGS [r12_642_TrMRF]”, in that order: 1.22 ± 0.044 kcal/mol, 0.84 ± 0.016 kcal/mol and 1.35 ± 0.038 kcal/mol.
“SAGGSAGGSMKKLKITFPPGMTEEELKKKIEELAKKLNLEVVKIKSIEYDKENKEVTITVEIKSAGGSAGGS [r12_131_TrROS_Hall]”: the “folding stability dG unfold” value in data set [1] came out at 3.87 ± 0.088 kcal/mol; in data set [2] it was 4.2 ± 0.17 kcal/mol; in data set [3] it was 3.77 ± 0.059 kcal/mol.
Regarding “SAGGSAGGSMKRLPDGNLVVKLNNGSTWSVITIPVSPDESEEEIKQRLKELFGPNYPEYDISESAGGSAGGS [r12_300_JUSTAS]”, the “folding stability dG unfold” value in data set [1] amounted to 1.04 ± 0.058 kcal/mol; in data set [2], 1.08 ± 0.011 kcal/mol; in data set [3] it was 0.917 ± 0.09 kcal/mol.
For “SAGGSAGGSMKTVEIELVNKETGKKVTITVNDGKVTIRITNPDGEEKELEFPSLEEALEALLSSAGGSAGGS [r12_511_TrROS_Hall]”, in that order: 2.19 ± 0.2 kcal/mol, 2.45 ± 0.14 kcal/mol and 1.93 ± 0.19 kcal/mol.
